We go through six molecules from patent US20260232827A1 (Zymeworks, published 2026).

The target of assay [1] is T1, human sodium-dependent phosphate transporter 2B (NaPi2b) (human, UniProt O95436 1-690).
T1 construct: Endogenous on tumor cell lines (IGROV-1, OVCAR-3, HCC-78, TOV-21G, NCI-H441) or transfected into HEK293-6e cells with pTT5-huNaPi2b (CL_#13432); also called Hu NaPi2b; hNaPi2b
T1 sequence: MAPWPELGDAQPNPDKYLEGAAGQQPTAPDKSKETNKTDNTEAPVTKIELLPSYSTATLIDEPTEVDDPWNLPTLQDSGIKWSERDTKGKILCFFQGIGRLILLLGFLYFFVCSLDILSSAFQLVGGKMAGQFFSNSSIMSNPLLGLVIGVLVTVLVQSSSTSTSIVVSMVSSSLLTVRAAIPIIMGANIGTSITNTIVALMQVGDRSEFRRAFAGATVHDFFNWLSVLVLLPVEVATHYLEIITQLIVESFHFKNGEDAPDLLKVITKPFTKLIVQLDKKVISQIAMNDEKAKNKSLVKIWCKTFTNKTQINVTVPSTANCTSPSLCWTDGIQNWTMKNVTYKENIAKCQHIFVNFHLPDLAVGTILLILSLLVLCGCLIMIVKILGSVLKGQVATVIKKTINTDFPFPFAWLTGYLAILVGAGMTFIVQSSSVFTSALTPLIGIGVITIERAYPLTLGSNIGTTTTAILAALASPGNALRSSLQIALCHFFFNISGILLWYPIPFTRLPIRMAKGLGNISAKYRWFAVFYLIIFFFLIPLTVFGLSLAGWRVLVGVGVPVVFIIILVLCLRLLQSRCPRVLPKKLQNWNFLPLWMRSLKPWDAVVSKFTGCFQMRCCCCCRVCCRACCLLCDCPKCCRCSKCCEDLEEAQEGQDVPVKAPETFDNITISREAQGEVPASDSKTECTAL
The assay is described as follows: flow cytometry on OVCAR-3 cells, 24 h at 4 C, anti-human IgG Fc AF647.

In assay [2] the target is T1, human sodium-dependent phosphate …. The assay is described as follows: flow cytometry on IGROV-1 cells, 24 h at 4 C, anti-human IgG Fc AF647.
The target is the same in assay [3]. Nature of the assay: cell-based or functional assay.
Assay [4] concerns the target T2, cynomolgus monkey NaPi2b (cynomolgus monkey, UniProt O95436 1-690 (human entry)).
T2 construct: Transfected into HEK293-6e cells (clone CL_#13433); also called Cy NaPi2b; Cyno NaPi2b
T2 chain: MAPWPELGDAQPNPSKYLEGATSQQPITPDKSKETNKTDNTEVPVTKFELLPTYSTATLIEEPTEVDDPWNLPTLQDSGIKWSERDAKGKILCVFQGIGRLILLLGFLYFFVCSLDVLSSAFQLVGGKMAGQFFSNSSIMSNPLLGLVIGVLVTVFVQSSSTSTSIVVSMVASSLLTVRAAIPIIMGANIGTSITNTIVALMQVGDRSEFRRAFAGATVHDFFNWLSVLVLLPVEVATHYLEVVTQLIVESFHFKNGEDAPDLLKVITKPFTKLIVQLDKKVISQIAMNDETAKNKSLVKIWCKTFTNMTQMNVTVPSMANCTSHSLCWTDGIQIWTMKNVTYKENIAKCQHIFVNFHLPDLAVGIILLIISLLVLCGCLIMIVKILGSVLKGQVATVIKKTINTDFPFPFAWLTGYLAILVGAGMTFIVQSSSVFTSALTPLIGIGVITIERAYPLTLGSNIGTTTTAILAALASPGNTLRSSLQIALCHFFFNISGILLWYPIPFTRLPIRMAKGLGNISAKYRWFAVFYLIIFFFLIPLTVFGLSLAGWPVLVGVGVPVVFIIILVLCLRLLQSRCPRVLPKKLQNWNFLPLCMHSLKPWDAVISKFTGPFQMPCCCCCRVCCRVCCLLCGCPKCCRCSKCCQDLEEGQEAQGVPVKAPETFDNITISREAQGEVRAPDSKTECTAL
Nature of the assay: flow cytometry on HEK293-6e cells transfected with cynomolgus NaPi2b, apparent Kd.

Assay [5] addresses T1, human sodium-dependent phosphate …. Nature of the assay: flow cytometry on HEK293-6e cells transfected with human NaPi2b.
Assay [6] concerns the target T3, mouse NaPi2b (mouse, UniProt Q9DBP0 1-697).
T3 construct: Transfected into HEK293-6e cells (clone CL_#13476); also called Ms NaPi2b
T3 sequence: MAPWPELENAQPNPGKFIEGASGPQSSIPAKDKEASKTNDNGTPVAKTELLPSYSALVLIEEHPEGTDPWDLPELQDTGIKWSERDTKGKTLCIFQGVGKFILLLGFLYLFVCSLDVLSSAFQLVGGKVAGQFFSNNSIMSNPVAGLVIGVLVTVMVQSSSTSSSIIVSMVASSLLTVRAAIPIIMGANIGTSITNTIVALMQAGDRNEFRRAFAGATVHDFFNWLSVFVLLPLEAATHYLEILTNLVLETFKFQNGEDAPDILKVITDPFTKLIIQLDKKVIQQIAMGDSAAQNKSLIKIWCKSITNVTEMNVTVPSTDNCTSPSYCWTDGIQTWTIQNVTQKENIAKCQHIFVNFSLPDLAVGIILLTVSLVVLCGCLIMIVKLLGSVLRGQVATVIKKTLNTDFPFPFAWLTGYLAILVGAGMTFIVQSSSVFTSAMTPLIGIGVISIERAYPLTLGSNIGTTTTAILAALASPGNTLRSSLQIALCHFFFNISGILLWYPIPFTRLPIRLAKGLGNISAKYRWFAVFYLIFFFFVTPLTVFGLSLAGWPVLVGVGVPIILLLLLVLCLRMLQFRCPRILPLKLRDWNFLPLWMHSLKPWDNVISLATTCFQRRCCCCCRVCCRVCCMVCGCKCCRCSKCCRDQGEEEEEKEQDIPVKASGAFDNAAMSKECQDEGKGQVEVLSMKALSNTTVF
Nature of the assay: flow cytometry on HEK293-6e cells transfected with mouse NaPi2b, apparent Kd.

Assay [7] deals with T3, mouse NaPi2b. Nature of the assay: flow cytometry on HEK293-6e cells transfected with mouse NaPi2b.
The target of assay [8] is T2, cynomolgus monkey NaPi2b. The assay is described as follows: flow cytometry on HEK293-6e cells transfected with cynomolgus NaPi2b.
The target of assay [9] is T1, human sodium-dependent phosphate …. Nature of the assay: flow cytometry on HEK293-6e cells transfected with human NaPi2b. This is another data set of the same source.
In assay [10] the target is T4, human NaPi2b (sodium-dependent phosphate transporter 2B) (human, UniProt O95436 1-690).
T4 sequence: T1 sequence
The assay is described as follows: cell-based or functional assay.

Assay [11] concerns the target T4, human NaPi2b (sodium-dependent …). Nature of the assay: flow cytometry on H441 cells (endogenous NaPi2b), 24 h at 4 C.
Assay [12] has the same target. Nature of the assay: flow cytometry on IGROV-1 cells (endogenous NaPi2b), 24 h at 4 C.
Assay [13] shares this target. The assay is described as follows: flow cytometry on HCC-78 cells (endogenous NaPi2b), 24 h at 4 C.
The target is the same in assay [14]. Nature of the assay: cell-based or functional assay. This is another data set of the same source.
For assay [15], the target named is T5, human sodium-dependent phosphate transporter 2B (NaPi2b) (human, UniProt O95436 1-690).
T5 construct: UniProt ID is given as 095436 [sic]; also called hNaPi2b; Hu NaPi2b
T5 sequence: T1 sequence
Nature of the assay: flow cytometry on HCC-78 cells (endogenous NaPi2b), 24 h at 4 C, anti-human IgG Fc AF647, APC-A GeoMean.

For assay [16], the target named is T5, human sodium-dependent phosphate …. The assay is described as follows: flow cytometry on H441 cells (endogenous NaPi2b), 24 h at 4 C, anti-human IgG Fc AF647, APC-A GeoMean.
The target is the same in assay [17]. Nature of the assay: flow cytometry on IGROV-1 cells (endogenous NaPi2b), 24 h at 4 C, anti-human IgG Fc AF647, APC-A GeoMean.

B1: v38591-MC-GGFG-AM-Compound 139 DAR 8 (antibody, human IgG1, kappa)
heavy: not shown
light: DVQMTQSPSSLSASVGDRVTITCRASQDVYSYLNWYQQKPGKAVKLLIYYTSRLQSGVPSRFSGSGSGTDYTLTISSLQPEDFATYYCQQYNIFPWTFGQGTKLEIKRTVAAPSVFIFPPSDEQLKSGTASVVCLLNNFYPREAKVQWKVDNALQSGNSQESVTEQDSKDSTYSLSSTLTLSKADYEKHKVYACEVTHQGLSSPVTKSFNRGEC
modifications: drug-linker MC-GGFG-AM-Compound 139 on cysteine thiols after TCEP reduction, positions not given; DAR 8 for the whole antibody
notes: Antibody-drug conjugate of v38591 (IgG1/kappa); also called v38593
Consider B1, for which the Bmax was found to be 14300 in assay [1]; 20500 in assay [2]; 1530 in assay [5]; 396 with mouse NaPi2b [7]; 408 with cynomolgus monkey NaPi2b [8]; 1530 in assay [9]. The Kd stood at 2.71 nM in assay [1], 1.6 nM in [2], 0.47 nM in the assay with cynomolgus monkey NaPi2b [4] and 0.64 nM with mouse NaPi2b [6]. Further, the “Internalized Fluorescence in OVCAR-3, 15 min, 100 nM” value in assay [3] came to 7380. Further, the “Internalized Fluorescence in OVCAR-3, 4 hr, 100 nM” value in [3] is 15600. For the same molecule, the “Internalized Fluorescence in OVCAR-3, 16 hr, 100 nM” value in assay [3] was determined as 16800. Besides, the “Internalized Fluorescence in OVCAR-3, 24 hr, 100 nM” value in [3] came to 26700.

B2: v38591-MC-GGFG-AM-Compound 139 DAR 4 (antibody, human IgG1, kappa)
heavy: not shown
light: B1 light
modifications: drug-linker MC-GGFG-AM-Compound 139 on cysteine thiols after TCEP reduction, positions not given; DAR 4 for the whole antibody
notes: Antibody-drug conjugate of v38591 (IgG1/kappa)
Consider B2, for which the Bmax in assay [1] came out at 15500; in assay [2], 22700; in assay [5], 1260; in the assay with mouse NaPi2b [7], 538; with cynomolgus monkey NaPi2b [8] it was 459; in assay [9], 1260. The Kd in assay [1] is 2.52 nM; in assay [2], 1.7 nM; in the assay with cynomolgus monkey NaPi2b [4] it was 0.36 nM; in the assay with mouse NaPi2b [6], 1.49 nM.

B3: v38591-MC-GGFG-AM-Compound 139 DAR 4 (antibody, human IgG1, kappa)
heavy: not shown
light: B1 light
modifications: drug-linker MC-GGFG-AM-Compound 139 on cysteines freed by TCEP reduction, DAR 4 over the whole antibody
For B3, in assay [10], the “EC50 (nM), in vitro cytotoxicity, H441 spheroids, 7 days” value was 9.85 nM and the “EC50 (nM), in vitro cytotoxicity, H1781 spheroids, 7 days” value amounted to 0.95 nM. Also, in [11], the “Bmax (MFI)” value was found to be 521 MFI and the Kd worked out at 0.74 nM. Moreover, in assay [12], the “Bmax (MFI)” value worked out at 10500 MFI and the Kd is 0.82 nM. Further, in assay [13], the “Bmax (MFI)” value turned out to be 7810 MFI and the Kd was determined as 1.07 nM. Besides, in assay [14], the “Internalized Fluorescence Fold-Over Untreated, H441, 4 h, 2.5 nM” value came to 1.2 fold; the “Internalized Fluorescence Fold-Over Untreated, H441, 24 h, 2.5 nM” value amounted to 2 fold; the “Internalized Fluorescence Fold-Over Untreated, HCC-78, 4 h, 2.5 nM” value was determined as 5.6 fold; the “Internalized Fluorescence Fold-Over Untreated, HCC-78, 24 h, 2.5 nM” value worked out at 35.9 fold. In [14], the “Internalized Fluorescence Fold-Over Untreated, IGROV-1, 4 h, 2.5 nM” value turned out to be 7.1 fold and the “Internalized Fluorescence Fold-Over Untreated, IGROV-1, 24 h, 2.5 nM” value stood at 26.6 fold.

B4: v40502 (LALADS) anti-NaPi2b antibody (antibody, human IgG1, kappa, L234A L235A)
heavy: not shown
light: B1 light
notes: v38591 with L234A, L235A and D265S (EU) in the Fc
For the molecule B4, the “EC50 (read off the curve)” value in assay [15] is ~3 nM; in [16] it was ~0.6 nM; in [17], ~2 nM.

B5: v40502-MC-GGFG-AM-Compound 139 DAR 4 (antibody, human IgG1, kappa, L234A L235A)
heavy: not shown
light: B1 light
modifications: drug-linker MC-GGFG-AM-Compound 139 on cysteines freed by TCEP reduction, DAR 4 over the whole antibody
For the molecule B5, in assay [10], the “EC50 (nM), in vitro cytotoxicity, H441 spheroids, 7 days” value stood at 7.57 nM and the “EC50 (nM), in vitro cytotoxicity, H1781 spheroids, 7 days” value amounted to 1.15 nM. In assay [11], the “Bmax (MFI)” value was determined as 518 MFI and the Kd turned out to be 0.81 nM. In assay [12], the “Bmax (MFI)” value was found to be 10700 MFI and the Kd was found to be 0.82 nM. Moreover, in assay [13], the “Bmax (MFI)” value was 7770 MFI and the Kd was 1.12 nM. In addition, in assay [14], the “Internalized Fluorescence Fold-Over Untreated, H441, 4 h, 2.5 nM” value came to 1.2 fold; the “Internalized Fluorescence Fold-Over Untreated, H441, 24 h, 2.5 nM” value stood at 1.9 fold; the “Internalized Fluorescence Fold-Over Untreated, HCC-78, 4 h, 2.5 nM” value turned out to be 5.3 fold; the “Internalized Fluorescence Fold-Over Untreated, HCC-78, 24 h, 2.5 nM” value was determined as 36.5 fold. For the same molecule, in assay [14], the “Internalized Fluorescence Fold-Over Untreated, IGROV-1, 4 h, 2.5 nM” value stood at 6.8 fold and the “Internalized Fluorescence Fold-Over Untreated, IGROV-1, 24 h, 2.5 nM” value amounted to 25.4 fold.

B6: v40502 (LALADS)-MC-GGFG-AM-Compound 139 DAR 4 (antibody, human IgG1, kappa, L234A L235A)
heavy: not shown
light: B1 light
modifications: as above; MC-GGFG-AM-Compound 139 drug-linker on cysteines freed by TCEP reduction; sites not stated; DAR 4
notes: Antibody-drug conjugate of v40502
For the molecule B6, the figures for the “EC50 (read off the curve)” value in assay [15], in assay [16] and in [17] were ~3 nM, ~0.6 nM and ~2 nM, respectively.
